Here are results for 8 sequences from patent US20200368279.

Holding throughout (experiment): cell_activity
One data set has as its system SBS75606 ZFN. The settings on record: pair with SBS75609, K562, 15 ug/mL mRNA; 70.1 at 3.75 ug/mL.
The next data set deals with SBS75714 ZFN. Conditions: pair with SBS75715, K562, 15 ug/mL mRNA; 84.0 at 3.75 ug/mL.
The next data set deals with SBS75895 ZFN. The settings on record: pair with SBS75893, K562, 15 ug/mL mRNA; 76.6 at 3.75 ug/mL.
The subject of a further data set is SBS75609 ZFN. The settings on record: pair with SBS75606, K562, 15 ug/mL mRNA; 70.1 at 3.75 ug/mL.
The next data set concerns SBS75591 ZFN. The settings on record: pair with SBS75592, K562, 15 ug/mL mRNA; 80.0 at 3.75 ug/mL.
The subject of a further data set is SBS75893 ZFN. Conditions: pair with SBS75895, K562, 15 ug/mL mRNA; 76.6 at 3.75 ug/mL.
The test system of a further data set is SBS75592 ZFN. The settings on record: pair with SBS75591, K562, 15 ug/mL mRNA; 80.0 at 3.75 ug/mL.
In the next data set the test system is SBS75715 ZFN. The settings on record: pair with SBS75714, K562, 15 ug/mL mRNA; 84.0 at 3.75 ug/mL.

In the data set with SBS75606 ZFN, “AAGGAGGTGCTCCTGGAATTACTTAGCA (double strand) [SBS75606 target]” showed an activity of 91.4 % indels. In turn, “AGGGATGGGATGACTTGGCTTTAGGTCA (double strand) [SBS75714 target]” came in with an activity with SBS75714 ZFN of 90.7 % indels.

Sequence “AGGTTGGGAGTGGGGTCTTGTTCAGGGC (double strand) [SBS75895 target]” had an activity in the data set on SBS75895 ZFN of 91.3 % indels. In the data set with SBS75609 ZFN, “CTCCCCTGACCAAGGAAAATCGGGGTGG (double strand) [SBS75609 target]” returned an activity of 91.4 % indels.

In the data set with SBS75591 ZFN, “TCGGCCATCAGAAGGGAGGGACCCTGCT (double strand) [SBS75591 target]” showed an activity of 91.2 % indels. Take “GGGCTAGGGCTGAAGTGAGGTGAAAGGT (double strand) [SBS75893 target]”: in the data set with SBS75893 ZFN, the activity was 91.3 % indels. Sequence “GCTAAGTAATTCCAGGAGCACCTCCTTT (double strand) [SBS75592 target]” yielded an activity with SBS75592 ZFN of 91.2 % indels. Sequence “GGACTCAGGTGGGGGGTCTAGGGGTGAG (double strand) [SBS75715 target]” returned an activity in the data set with SBS75715 ZFN of 90.7 % indels.
